Results taken from patent US20150086562A1 (BIOATLA, published 2015).
Where a chain is given by its changes, count along the chain named.

T1: CD22 protein expressed on the surface of Daudi cells (human, UniProt P20273 20-847)
T1 sequence (looked up): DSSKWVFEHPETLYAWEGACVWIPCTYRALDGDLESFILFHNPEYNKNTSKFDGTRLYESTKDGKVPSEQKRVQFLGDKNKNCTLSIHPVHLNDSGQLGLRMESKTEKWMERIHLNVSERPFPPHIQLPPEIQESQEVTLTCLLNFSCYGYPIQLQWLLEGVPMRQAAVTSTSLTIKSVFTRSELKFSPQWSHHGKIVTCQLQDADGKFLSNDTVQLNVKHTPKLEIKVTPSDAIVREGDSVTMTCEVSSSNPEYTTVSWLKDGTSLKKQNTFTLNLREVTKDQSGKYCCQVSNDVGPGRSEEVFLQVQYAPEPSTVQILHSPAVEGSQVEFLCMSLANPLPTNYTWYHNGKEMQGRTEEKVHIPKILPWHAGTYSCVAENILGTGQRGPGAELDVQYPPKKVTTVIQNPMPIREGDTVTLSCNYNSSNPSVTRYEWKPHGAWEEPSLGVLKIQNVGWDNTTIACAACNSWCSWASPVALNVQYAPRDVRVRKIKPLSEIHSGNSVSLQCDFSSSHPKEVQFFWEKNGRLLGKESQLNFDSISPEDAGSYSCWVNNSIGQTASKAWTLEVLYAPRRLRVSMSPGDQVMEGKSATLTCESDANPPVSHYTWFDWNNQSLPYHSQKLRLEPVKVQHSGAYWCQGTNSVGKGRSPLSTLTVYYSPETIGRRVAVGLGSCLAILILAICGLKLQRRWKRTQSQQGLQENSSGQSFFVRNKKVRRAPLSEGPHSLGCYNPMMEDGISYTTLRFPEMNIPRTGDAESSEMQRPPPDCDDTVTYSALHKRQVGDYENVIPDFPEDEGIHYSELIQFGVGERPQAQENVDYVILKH

B1: VM1009 (antibody, V domains shown)
VH: QVQLVQSGAEVKKPGASVKVSCKASGYVFTSYWLHWIRQSPSRGLEWLGYINPRNDYTEYNRIFKGRFVFSLDTSVSTAYLQICSLKAEDTAVYYCARRGITTFYWGQG
VL: EIVLTQSPATLSLSPGERATLSCKSSQSVLYSAVEKNYLAWYQQKPGKAPKLLIYWASTRERGVPSRFSGSGSGTDFTFTISSLEAEDAATYYCKQYLSSWTFGQG
notes: Humanized antibody with human constant region; also called anti-CD22 Mab clone VM1009
B2: VM1012 (antibody, V domains shown)
VH: QVQLVQSGAEVKKPGASVKVSCKASGYVFTSYWLHWVRQAPGQGLEWMGYINPRNDYTEYNRIFKGRFTISRDNAKNSLYLQMNSLRAEDTAVYYCARRGITTFYWGQG
VL: B1 VL with L13V, K48Q, K51R, E85Q, A86P, A89I
notes: Humanized antibody with human constant region; also called anti-CD22 Mab clone VM1012
B3: VM1005 (antibody, V domains shown)
VH: B1 VH with Q1E, S17T, V20I, A24V
VL: AIQLTQSPSSLSASVGDRVTITCKSSQSVLYSAVEKNYLAWYQQKPGQAPRLLIYWASTRERGVPSRFSGSGSGTDFTLTISSLQPEDFATYYCKQYLSSWTFGQG
notes: Humanized antibody with human constant region; also called anti-CD22 Mab clone VM1005
B4: VM1010 (antibody, V domains shown)
VH: EVQLVQSGAEVKKPGESLRISCKVSGYVFTSYWLHWIRQSPSRGLEWLGYINPRNDYTEYNRIFKGRFTISRDNAKNSLYLQMNSLRAEDTAVYYCARRGITTFYWGQG
VL: B1 VL with E85Q, A86P, A89I
notes: Humanized antibody with human constant region; also called anti-CD22 Mab clone VM1010
B5: VM1008 (antibody, V domains shown)
VH: QVQLVQSGAEVKKPGASVKVSCKASGYVFTSYWLHWVRQARGQRLEWIGYINPRNDYTEYNRIFKGRVTITADKSTSTAYMELSSLRSEDTAVYYCARRGITTFYWGQG
VL: B3 VL with A1D, L4M, V64I, S66D, S83R, Q85E, T91V
notes: Humanized antibody with human constant region; also called Anti-CD22 Ab VM1008; anti-CD22 Mab clone VM1008
B6: VM1013 (antibody, V domains shown)
VH: QVQLQESGPGLVKPSQTLSLTCTVSGYVFTSYWLHWIRQPPGKGLEWIGYINPRNDYTEYNRIFKGRFTISRDNAKNSLYLQMNSLRAEDTAVYYCARRGITTFYWGQG
VL: B3 VL
notes: Humanized antibody with human constant region; also called anti-CD22 Mab clone VM1013

How the values were obtained:
[1] = target: T1, CD22 protein expressed on the surface …; experiment: cell-based or functional assay
[2] = target: T1, CD22 protein expressed on the surface …; experiment: confocal immunofluorescence, FITC-labelled antibody on Daudi cells
Description: Selected antiCD22 selected anti-CD22 Mab clones VM1000, VM1001, VM1002, VM1003, VM1004, VM1005, VM1006, VM1007, VM1008, VM1009, VM1010, VM1011, VM1012, VM1013, VM1014, and VM1015 of the invention were directly conjugated to F1TC using the Zenon labeling complex (Molecular Probes) using the manufacturer's recommended procedures. Approximately 1×10e7 Daudi cells were resuspended in PBS containing 5 ug/ml labeled anti-CD22 antibody and incubated for 45 minutes on ice. Cells then washed twice in PBS-FBS solution at 0 C. Cells were then incubated in RPMI 1640 media containing 10% FBS for varying periods at 37 C, harvested and washed in PBS at 0 C. The cells were then briefly fixed in 4% paraformaldehyde solution for 5 min at room temperature, then washed in PBS containing 0.05% Triton X-100. Cell pellets were collected by centrifugation and resupended in a minimal volume of FBS neat, and then applied to glass microscope slides. Prior to analysis, slides were treated with mounting fluid containing the nuclear stain DAPI, then coverslips were applied. Confocal images were recorded using an ACAS Ultima confocal microscope (Meridian Instruments, Inc., Okemos, Mich.) and represent 1-μm sections through the center of a focal plane using a 100× oil immersion objective.
The Anti-CD22 monoclonal antibodies selected clones VM1000, VM1001, VM1002, VM1003, VM1004, VM1005, VM1006, VM1007, VM1008, VM1009, VM1010, VM1011, VM1012, VM1013, VM1014, and VM1015 of the invention were analysed for their ability to be rapidly internalized into the intracellular compartment as judged by immunoflourescent signal on the cell surface versus the intracellular endo cytotic compartment. The antibodies of the invention were compared to BA006H, and humanized version of the murine monoclonal antibody LL2. In this example, FIG. 21A, the anti-CD22 antibodies of the invention bind to CD22 protein expressed on the surface of Daudi cells by approximately 20-fold compared to BA006H as judged by relative mean fluorescence (RMF), and are virtually completely internalized within the cell with 90 minutes, localizing predominantly to within the perinuclear golgi apparatus and associated lysozomes. Shown in FIG. 21B is a chart of the RMF surface binding values obtained in this manner for individual anti-CD22 antibodies of the invention.

[3] = target: T2, recombinant CD22 extracellular domain; experiment: ELISA on plates coated with recombinant CD22 extracellular domain (coating 2, 0.2, 0.02 or 0.002 ug/ml per paragraph 227; the sheet does not say which), anti-human IgG-HRP, read at 450 nm
T2 construct: Kept apart from m18, which is cell-surface CD22; also called CD22 (analyte in the BIAcore runs); CD22 ECD
Description: Nunc-Immuno MaxiSorp 96 well plates were coated with 100 μl of 2 μg/ml, 0.2 μg/ml, 0.02 μg/ml or 0.002 μg/ml recombinant CD22 extracellular domain (PeproTech, Inc. catalog number 100-01 in coating solution (sodium bicarbonate in PBS). The plates were covered with plate sealer and incubated at 4° C. overnight. Plates were emptied and the residual liquid tapped out on paper towels. 200 μl washing solution (0.05% Tween-20 in PBS) was added and shaken at 200 RPM for 5 min at room temperature. The plates were emptied and residual liquid tapped out on paper towels. 200 μl blocking solution (2% Carnation milk in PBS) was added and shaken at 200 RPM for one hour at room temperature. Plates were emptied and residual liquid tapped out on paper towels. 100 μl of diluted samples containing VM1000, VM1001, VM1002, VM1003, VM1004, VM1005, VM1006, VM1007, VM1008, VM1009, VM1010, VM1011, VM1012, VM1013, VM1014, and VM1015 antibodies for ELISA were used. The samples were shaken at 200 RPM for one hour at room temperature; plates emptied and residual liquid tapped out on paper towels. 200 μl washing solution (0.05% Tween-20 in PBS) was added, shaken at 200 RPM for 5 min at room temperature; plates emptied and residual liquid tapped out on paper towels. This process was repeated three times. 100 μl of 1:2500 dilution of anti-human IgG conjugated with HRP diluted in block solution (2% Carnation milk in PBS) was added for all samples. 100 μl of 1:2500 dilution of anti-rabbit IgG conjugated with HRP diluted in block solution (2% Carnation milk in PBS) was added for control antibody. The contents were shaken at 200 RPM for one hour at room temperature, plates emptied and residue liquid tapped out on paper towels. 200 μl washing solution (0.05% Tween-20 in PBS) was added, shaken at 200 RPM for 5 min at room temperature; plates emptied and residual liquid tapped out on paper towels. This process was repeated three times. 100 μl TMB substrate solution was added, and incubated at room temperature. The reaction was stopped with 1 N HCl, and the plate read at 450 nm to determine relative binding affinity (FIG. 17).

Binder | Daudi Internalization by FACS, % Shift [1] [%] | fold surface binding by relative mean fluorescence (RMF) compared to BA006H [2] [fold] | ELISA OD 450 [3]
B1 | 69.4 | ~20 | 0.597
B2 | 87.5 | ~20 | –
B3 | 86.4 | ~20 | 0.372
B4 | 65.7 | ~20 | 0.7
B5 | 69.4 | ~20 | 0.67
B6 | 88.8 | ~20 | –
